# According to the supplement of paper PMC12855868:
# B1: library; numbered along this chain (parent)
# chain: MAAAGGARLLRAASAVLGGPAGRWLHHAGSRAGSSGLLRNRGPGGSAEASRSLSVSARARSSSEDKITVHFINRDGETLTTKGKVGDSLLDVVVENNLDIDGFGACEGTLACSTCHLIFEDHIYEKLDAITDEENDMLDLAYGLTDRSRLGCQICLTKSMDNMTVRVPETVADARQSIDVGKTS
# Variants of: B1
# Test: scaled log2 fold change in cell abundance, elesclomol vs control (0 = silent mean, 1 = nonsense mean) (scaled log2 ratio); higher = higher viability under elesclomol (loss of FDX1 cuproptosis function)
# Conditions: glucose 10 mM
# [1] = with ABC1 FDX1 KO, elesclomol 5 nM, 14 days
# [2] = with HEK293T FDX1 KO, elesclomol 40 nM, 11 days
# 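Further: variant abundance is its share of total variant reads in each endpoint sample, from next-generation sequencing of the integrated ORF PCR-amplified out of genomic DNA.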
Variant,scaled log2 fold change [1],scaled log2 fold change [2]
N162Y,0.0965,0.0713
N162Q,0.14,-1.17
N162C,-0.275,0.0594
N162T,-0.0302,0.362
N162W,0.1,0.831
N162A,0.23,0.844
N162M,0.128,-0.13
N162R,0.34,-0.871
N162I,-0.0298,-0.611
N162E,0.0612,0.838
N162G,-0.601,–
N162S,0.162,–
N162V,0.0601,0.0858
N162L,-0.0365,-0.341
N162H,-0.203,0.208
N162P,0.182,-0.234
N162K,-0.0702,0.386
N162D,-0.354,0.0725
N162F,0.167,-0.244
T157R,0.294,0.0556
T157C,0.0208,0.206
T157G,-0.366,0.895
T157F,0.0938,0.986
T157I,-0.909,-0.784

Variant,scaled log2 fold change [1],scaled log2 fold change [2]
T157P,0.927,0.296
T157K,0.0573,-0.19
T157D,0.102,-0.275
T157L,-0.0209,-0.588
T157Q,0.0955,1.04
T157M,0.046,0.00875
T157Y,0.175,-0.241
T157S,0.365,0.742
T157H,-0.268,-0.000268
T157N,-0.181,–
T157A,0.304,0.871
T157E,0.0855,-0.0584
T157V,-0.108,-0.969
K158P,0.0465,0.515
K158Q,-0.363,-0.446
K158M,0.185,-0.505
K158C,0.225,0.192
K158E,-0.265,0.159
K158A,-0.146,0.138
K158W,0.161,-0.562
K158N,-0.716,-0.562
K158I,-0.0888,-0.515
K158F,0.241,0.189
K158L,0.172,-0.122

Variant,scaled log2 fold change [1],scaled log2 fold change [2]
K158V,0.0943,-0.343
K158D,0.233,0.95
K158T,-0.0261,0.646
K158S,0.23,-0.645
K158R,0.0874,-0.484
K158Y,0.0178,-1.33
K158H,0.174,-0.704
K158G,-0.426,-0.842
V165L,-0.0209,-0.834
V165K,1.08,1.01
V165H,1.12,0.873
V165Y,1.03,1.38
V165S,0.00333,0.568
V165F,0.53,0.286
V165W,0.852,0.405
V165M,-0.123,-0.424
V165P,0.71,0.4
V165T,0.13,-0.566
V165N,0.812,1.02
V165E,1.06,1.35
V165Q,1.06,1.21
V165R,1.09,1.45
V165G,0.475,0.411
V165C,0.0302,0.944

Variant,scaled log2 fold change [1],scaled log2 fold change [2]
V165D,1.12,0.895
V165A,-0.0573,-0.318
V165I,-0.183,-0.249
M160C,-0.675,-0.515
M160A,0.233,-0.241
M160V,-0.27,–
M160Y,0.274,0.713
M160W,0.366,-0.0391
M160N,0.245,-0.0466
M160F,0.0868,0.149
M160D,-0.132,0.103
M160H,-0.251,0.0298
M160L,-0.304,–
M160E,0.143,-0.299
M160P,1.06,1.11
M160R,0.249,0.049
M160T,0.347,0.674
M160K,-0.0408,1.28
M160Q,0.0622,0.682
M160I,0.353,0.63
M160G,0.381,0.247
M160S,0.278,0.0347
V167F,0.518,–
V167C,-0.124,0.517

Variant,scaled log2 fold change [1],scaled log2 fold change [2]
V167A,-0.622,0.856
V167H,0.217,1.13
V167D,0.489,0.995
V167G,0.269,0.997
V167E,0.136,0.156
R166A,0.373,0.284
R166N,-0.198,0.918
R166P,1.06,1.77
R166M,0.144,-0.000209
R166I,-0.0924,-0.203
R166C,-0.501,-0.211
R166H,-0.236,–
R166S,0.275,-0.368
R166W,-0.00581,0.748
R166K,-0.502,-0.393
R166D,0.375,-0.407
R166G,0.266,-0.344
R166F,-0.233,0.799
R166E,-0.677,-0.967
R166T,0.529,-0.473
R166Q,-0.338,-0.083
R166Y,0.394,1.92
R166V,-0.116,0.509
R166L,-0.509,0.328

Variant,scaled log2 fold change [1],scaled log2 fold change [2]
C155Q,0.507,–
C155N,-0.0685,–
C155T,-0.251,-0.435
C155H,-1.03,-0.48
C155P,0.0631,0.21
C155Y,-0.378,-0.939
C155R,-0.248,-1.26
C155D,0.24,-1.76
C155G,-0.0608,-0.601
C155E,-0.828,-0.236
C155M,0.338,0.969
C155S,0.114,-0.635
C155W,-0.0475,0.246
C155F,-0.0473,-0.0932
C155A,-0.331,-0.584
C155K,-0.165,6.73e-05
C155V,-0.17,-0.185
C155I,0.0211,-0.117
C155L,0.0756,-0.359
D161F,0.305,0.236
D161V,-0.562,0.103
D161G,-0.198,–
D161Y,0.284,0.145
D161E,-0.0246,0.705

Variant,scaled log2 fold change [1],scaled log2 fold change [2]
D161W,0.197,-0.0327
D161A,-0.111,–
D161K,0.234,0.181
D161L,0.312,0.16
D161H,-0.161,-0.464
D161P,0.586,0.0492
D161C,0.35,0.607
D161I,0.0246,-0.332
D161Q,0.0687,–
D161N,0.064,-0.539
D161M,-0.0698,-0.0785
D161R,0.243,0.406
D161S,0.299,-0.0997
D161T,0.262,-0.0378
I154W,0.968,0.877
I154Y,0.82,0.121
M163A,-0.185,–
M163I,0.122,0.861
M163T,-0.131,0.00152
M163K,0.823,0.16
M163G,0.325,-0.225
M163S,-0.173,0.99
M163P,0.859,0.441
M163C,-0.512,0.319

Variant,scaled log2 fold change [1],scaled log2 fold change [2]
M163L,0.385,0.864
M163N,0.51,0.528
M163Y,0.547,-0.538
M163E,0.522,0.691
M163Q,0.357,-0.237
M163H,0.707,0.257
M163R,0.657,-0.245
M163F,0.518,-0.42
M163W,0.598,0.247
M163V,-0.168,0.941
M163D,1.16,0.514
S159E,-0.499,-0.34
S159N,0.273,-0.128
S159Y,-0.0652,-0.463
S159R,-0.282,0.159
S159F,-0.798,0.523
S159G,-1.03,-0.767
S159M,-0.149,-0.209
S159D,-1.07,-0.414
S159T,-0.475,0.754
S159W,0.0873,0.215
S159V,0.225,0.738
S159I,-0.459,0.0583
S159L,-0.241,0.847

Variant,scaled log2 fold change [1],scaled log2 fold change [2]
S159K,0.382,-0.162
S159P,-1.13,-0.284
S159C,0.095,-0.0429
S159H,-0.58,0.214
S159A,0.168,-0.0471
S159Q,-0.52,–
T164C,0.25,0.194
T164D,0.108,0.818
T164G,0.367,-0.293
T164L,-0.159,-0.224
T164W,-0.403,-0.13
T164V,0.342,1.31
T164F,0.0235,-0.4
T164P,0.508,-0.0295
T164I,-0.259,-0.338
T164R,-0.0678,-0.0374
T164Y,-1.38,0.173
T164N,0.361,1.04
T164K,-0.0707,0.0715
T164A,0.408,0.0905
T164Q,-0.171,–
T164S,-0.253,0.99
T164E,-0.00918,0.119
T164M,-0.076,-0.072

Variant,scaled log2 fold change [1],scaled log2 fold change [2]
T164H,0.213,-0.0955
L156A,0.194,-1
L156N,0.8,0.347
L156D,1.12,0.926
L156C,0.353,0.332
L156K,1.05,1.71
L156T,0.139,0.0718
L156R,1.06,1.1
L156V,-0.38,0.664
L156H,1.07,1.03
L156W,1.06,1.36
L156F,0.599,-0.036
L156E,1.11,1.53
L156P,0.268,0.446
L156G,0.709,0.904
L156S,0.388,0.852
L156Y,1.07,0.941
L156M,-0.318,-0.383
L156Q,0.697,0.562
L156I,-0.0958,-0.948
